Measured values taken from patent US20150309050A1.
No end group written: not given here.

Columns and labels:
VT026 antiserum [1] = assay: competition RIA, antiserum 1:100K, tracer iodinated PACAP(31-38)
VT027 antiserum [2] = assay: competition RIA, antiserum 1:200K, tracer iodinated PACAP(31-38)
VT028 antiserum [3] = assay: as above
VT026 antiserum [4] = assay: RIA standard curve, tracer iodinated PACAP(31-38); 4 pg cold standard
VT027 antiserum [5] = assay: as above
VT028 antiserum [6] = assay: as above
VT026 antiserum [7] = assay: RIA standard curve, tracer iodinated PACAP(31-38); 1 pg cold standard
VT027 antiserum [8] = assay: as above
VT028 antiserum [9] = assay: as above
VT026 antiserum [10] = assay: RIA standard curve, tracer iodinated PACAP(31-38); 2 pg cold standard
VT027 antiserum [11] = assay: as above
VT028 antiserum [12] = assay: as above
VT028 antiserum [13] = assay: RIA standard curve, tracer iodinated PACAP(31-38); 8 pg cold standard
VT026 antiserum [14] = assay: RIA standard curve, tracer iodinated PACAP(31-38); 32 pg cold standard
VT027 antiserum [15] = assay: as above
VT028 antiserum [16] = assay: as above
VT028 antiserum [17] = assay: RIA standard curve, tracer iodinated PACAP(31-38); 16 pg cold standard
VT026 antiserum [18] = assay: RIA standard curve, tracer iodinated PACAP(31-38); 128 pg cold standard
VT028 antiserum [19] = assay: as above
VT026 antiserum [20] = assay: RIA standard curve, tracer iodinated PACAP(31-38); 255 pg cold standard
VT027 antiserum [21] = assay: as above
VT028 antiserum [22] = assay: as above
VT026 antiserum [23] = assay: RIA standard curve, tracer iodinated PACAP(31-38); 510 pg cold standard
VT027 antiserum [24] = assay: as above
VT028 antiserum [25] = assay: as above
VT026 antiserum [26] = assay: RIA standard curve, tracer iodinated PACAP(31-38); 1,020 pg cold standard
VT027 antiserum [27] = assay: as above
VT026 antiserum [28] = assay: RIA standard curve, tracer iodinated PACAP(31-38); 2,040 pg cold standard
VT027 antiserum [29] = assay: as above
[30] = target: PACAP38 RIA antiserum (Peninsula Laboratories); assay: competition RIA, double antibody immunoprecipitation, antiserum 1:30,000
VT026 antiserum [31] = assay: RIA standard curve, tracer iodinated PACAP(31-38); 5 pg cold standard (so in the source)
VT027 antiserum [32] = assay: RIA standard curve, tracer iodinated PACAP(31-38); 3 pg cold standard (so in the source)
VT026 antiserum [33] = assay: RIA standard curve, tracer iodinated PACAP(31-38); 18 pg cold standard (so in the source)
VT027 antiserum [34] = assay: as above
VT026 antiserum [35] = assay: RIA standard curve, tracer iodinated PACAP(31-38); 84 pg cold standard (so in the source)
VT027 antiserum [36] = assay: as above
VT028 antiserum [37] = assay: RIA standard curve, tracer iodinated PACAP(31-38); 54 pg cold standard (so in the source)
VT027 antiserum [38] = assay: RIA standard curve, tracer iodinated PACAP(31-38); 125 pg cold standard (so in the source)
VT027 antiserum [39] = assay: competition RIA, tracer iodinated PACAP(31-38); low end tied to VT027 by Table 6 (41 pg)
VT026 antiserum [40] = assay: competition RIA, tracer iodinated PACAP(31-38); high end tied to VT026 by Table 5 (20.3 fmol)
VT028 antiserum [41] = assay: RIA standard curve, tracer iodinated PACAP(31-38); 1.020 pg cold standard as printed (read as 1,020)
VT028 antiserum [42] = assay: RIA standard curve, tracer iodinated PACAP(31-38); 2.040 pg cold standard as printed (read as 2,040)
VT028 antiserum [43] = assay: RIA standard curve, tracer iodinated PACAP(31-38); 1 pg cold standard; period in the CPM read as thousands mark
VT028 antiserum [44] = assay: RIA standard curve, tracer iodinated PACAP(31-38); 2 pg cold standard; period in the CPM read as thousands mark
VT028 antiserum [45] = assay: RIA standard curve, tracer iodinated PACAP(31-38); 4 pg cold standard; period in the CPM read as thousands mark
VT028 antiserum [46] = assay: RIA standard curve, tracer iodinated PACAP(31-38); 8 pg cold standard; period in the CPM read as thousands mark
VT028 antiserum [47] = assay: RIA standard curve, tracer iodinated PACAP(31-38); 16 pg cold standard; period in the CPM read as thousands mark
VT028 antiserum [48] = assay: RIA standard curve, tracer iodinated PACAP(31-38); 32 pg cold standard; period in the CPM read as thousands mark
VT028 antiserum [49] = assay: RIA standard curve, tracer iodinated PACAP(31-38); 128 pg cold standard; period in the CPM read as thousands mark
VT028 antiserum [50] = assay: RIA standard curve, tracer iodinated PACAP(31-38); 255 pg cold standard; period in the CPM read as thousands mark
VT028 antiserum [51] = assay: RIA standard curve, tracer iodinated PACAP(31-38); 510 pg cold standard; period in the CPM read as thousands mark
VT028 antiserum [52] = assay: RIA standard curve, tracer iodinated PACAP(31-38); 54 pg cold standard (so in the source); period in the CPM read as thousands mark
VT028 antiserum [53] = assay: RIA standard curve, tracer iodinated PACAP(31-38); 1.020 pg cold standard as printed (read as 1,020); period in the CPM read as thousands mark

B1: PACAP38 (peptide, UniProt P18509 132-169, looked up)
peptide: HSDGIFTDSYSRYRKQMAVKKYLAAVLGKRYKQRVKNK
modifications: not fully specified; ends and bridges not checked
DETECTION LIMIT (VT026 antiserum [1]): 5.38 pg | MIDPOINT [fmol] (VT026 antiserum [1]): 20.3 fmol | MIDPOINT [pg] (VT026 antiserum [1]): 92 pg | DETECTION LIMIT (VT027 antiserum [2]): 2.19 pg | MIDPOINT [fmol] (VT027 antiserum [2]): 92 fmol | MIDPOINT [pg] (VT027 antiserum [2]): 41 pg | DETECTION LIMIT (VT028 antiserum [3]): 6.69 pg | MIDPOINT [fmol] (VT028 antiserum [3]): 19.3 fmol | MIDPOINT [pg] (VT028 antiserum [3]): 67 pg | BINDING (VT026 antiserum [4]): 0.957 | CPM (VT026 antiserum [4]): 5510 cpm | BINDING (VT027 antiserum [5]): 0.589 | CPM (VT027 antiserum [5]): 7280 cpm | BINDING (VT028 antiserum [6]): 0.946 | BINDING (VT026 antiserum [7]): 0.973 | CPM (VT026 antiserum [7]): 5600 cpm | BINDING (VT027 antiserum [8]): 0.978 | CPM (VT027 antiserum [8]): 7960 cpm | BINDING (VT028 antiserum [9]): 0.993 | BINDING (VT026 antiserum [10]): 0.961 | CPM (VT026 antiserum [10]): 5540 cpm | BINDING (VT027 antiserum [11]): 0.931 | CPM (VT027 antiserum [11]): 7620 cpm | BINDING (VT028 antiserum [12]): 0.981 | BINDING (VT028 antiserum [13]): 0.914 | BINDING (VT026 antiserum [14]): 0.728 | CPM (VT026 antiserum [14]): 4250 cpm | BINDING (VT027 antiserum [15]): 0.584 | CPM (VT027 antiserum [15]): 4860 cpm | BINDING (VT028 antiserum [16]): 0.77 | BINDING (VT028 antiserum [17]): 0.88 | BINDING (VT026 antiserum [18]): 0.427 | CPM (VT026 antiserum [18]): 2800 cpm | BINDING (VT028 antiserum [19]): 0.367 | BINDING (VT026 antiserum [20]): 0.271 | CPM (VT026 antiserum [20]): 1740 cpm | BINDING (VT027 antiserum [21]): 0.147 | CPM (VT027 antiserum [21]): 1140 cpm | BINDING (VT028 antiserum [22]): 0.227 | BINDING (VT026 antiserum [23]): 0.142 | CPM (VT026 antiserum [23]): 1030 cpm | BINDING (VT027 antiserum [24]): 0.0789 | CPM (VT027 antiserum [24]): 875 cpm | BINDING (VT028 antiserum [25]): 0.133 | BINDING (VT026 antiserum [26]): 0.0598 | CPM (VT026 antiserum [26]): 800 cpm | BINDING (VT027 antiserum [27]): 0.0512 | CPM (VT027 antiserum [27]): 858 cpm | BINDING (VT026 antiserum [28]): 0.0479 | CPM (VT026 antiserum [28]): 515 cpm | BINDING (VT027 antiserum [29]): 0.0302 | CPM (VT027 antiserum [29]): 490 cpm | assay midpoint [30]: 3.5 fmol | BINDING (VT026 antiserum [31]): 0.945 | CPM (VT026 antiserum [31]): 5450 cpm | BINDING (VT027 antiserum [32]): 0.835 | CPM (VT027 antiserum [32]): 6850 cpm | BINDING (VT026 antiserum [33]): 0.859 | CPM (VT026 antiserum [33]): 4980 cpm | BINDING (VT027 antiserum [34]): 0.715 | CPM (VT027 antiserum [34]): 5900 cpm | BINDING (VT026 antiserum [35]): 0.502 | CPM (VT026 antiserum [35]): 3450 cpm | BINDING (VT027 antiserum [36]): 0.411 | CPM (VT027 antiserum [36]): 3500 cpm | BINDING (VT028 antiserum [37]): 0.606 | BINDING (VT027 antiserum [38]): 0.245 | CPM (VT027 antiserum [38]): 2190 cpm | assay midpoint (VT027 antiserum [39]): 9 fmol | assay midpoint (VT026 antiserum [40]): 20 fmol | BINDING (VT028 antiserum [41]): 0.0685 | BINDING (VT028 antiserum [42]): 0.0389 | CPM (VT028 antiserum [42]): 684 cpm | CPM (VT028 antiserum [43]): 11300 cpm | CPM (VT028 antiserum [44]): 11200 cpm | CPM (VT028 antiserum [45]): 10800 cpm | CPM (VT028 antiserum [46]): 10400 cpm | CPM (VT028 antiserum [47]): 10100 cpm | CPM (VT028 antiserum [48]): 8840 cpm | CPM (VT028 antiserum [49]): 4350 cpm | CPM (VT028 antiserum [50]): 2760 cpm | CPM (VT028 antiserum [51]): 1730 cpm | CPM (VT028 antiserum [52]): 7010 cpm | CPM (VT028 antiserum [53]): 1020 cpm
